Assay results taken from patent US7732133B2, “Screening methods for biologically active ligands” (Chugai Seiyaku Kabushiki Kaisha, priority 2000, dated 2010).

Target: T1, chimeric LIF receptor (human LIF receptor and human gp130 / mouse G-CSF receptor) in Ba/F3 cell line LIG (Homo sapiens, UniProt P40189+P42702)
T1 construct: from the 1st to the 833rd amino acid residues; expressed in transfected cells; host or cells: mouse Ba/F3 cells co-transfected with pCV-cLIFR and pCV-cgp130, clone LIG#47 = LIG
T1 sequence (P42702 45-833): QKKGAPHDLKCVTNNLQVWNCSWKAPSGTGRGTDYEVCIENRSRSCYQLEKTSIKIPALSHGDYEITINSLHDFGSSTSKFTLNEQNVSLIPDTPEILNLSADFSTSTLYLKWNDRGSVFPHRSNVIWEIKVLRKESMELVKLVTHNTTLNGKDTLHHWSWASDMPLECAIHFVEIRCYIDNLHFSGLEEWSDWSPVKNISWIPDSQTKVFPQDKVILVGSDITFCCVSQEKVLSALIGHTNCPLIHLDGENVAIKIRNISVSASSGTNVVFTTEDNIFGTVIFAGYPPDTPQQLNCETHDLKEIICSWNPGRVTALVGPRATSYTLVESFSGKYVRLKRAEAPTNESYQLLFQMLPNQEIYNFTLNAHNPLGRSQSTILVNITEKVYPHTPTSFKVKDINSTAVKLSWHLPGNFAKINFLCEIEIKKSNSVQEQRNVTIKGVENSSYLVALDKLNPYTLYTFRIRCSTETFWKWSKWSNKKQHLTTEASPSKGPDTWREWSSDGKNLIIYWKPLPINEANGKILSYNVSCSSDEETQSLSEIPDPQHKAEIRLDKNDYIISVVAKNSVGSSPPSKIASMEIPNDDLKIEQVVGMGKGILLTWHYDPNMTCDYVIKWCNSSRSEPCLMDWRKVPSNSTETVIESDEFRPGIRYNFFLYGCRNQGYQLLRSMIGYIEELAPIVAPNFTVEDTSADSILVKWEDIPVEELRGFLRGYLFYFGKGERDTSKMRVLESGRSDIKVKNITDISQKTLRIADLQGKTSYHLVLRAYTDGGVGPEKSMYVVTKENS
T1 sequence (P40189 23-619): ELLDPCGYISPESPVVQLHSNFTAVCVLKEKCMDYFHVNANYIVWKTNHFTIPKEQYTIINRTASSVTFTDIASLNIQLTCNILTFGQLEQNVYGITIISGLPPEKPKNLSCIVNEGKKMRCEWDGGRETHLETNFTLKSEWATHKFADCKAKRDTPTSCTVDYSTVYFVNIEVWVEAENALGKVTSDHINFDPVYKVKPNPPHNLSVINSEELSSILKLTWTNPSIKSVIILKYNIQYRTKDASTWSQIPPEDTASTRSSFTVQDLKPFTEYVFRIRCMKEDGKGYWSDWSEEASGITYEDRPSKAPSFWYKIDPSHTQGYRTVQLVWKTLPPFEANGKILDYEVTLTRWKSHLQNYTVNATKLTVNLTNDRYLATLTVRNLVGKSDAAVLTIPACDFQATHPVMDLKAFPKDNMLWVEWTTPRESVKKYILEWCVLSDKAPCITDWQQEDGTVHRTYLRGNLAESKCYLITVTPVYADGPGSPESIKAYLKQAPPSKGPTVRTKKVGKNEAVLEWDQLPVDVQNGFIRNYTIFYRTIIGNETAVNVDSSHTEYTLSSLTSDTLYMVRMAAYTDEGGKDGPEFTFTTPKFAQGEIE
T1 sequence (P40223 627-837 partner limits assumed): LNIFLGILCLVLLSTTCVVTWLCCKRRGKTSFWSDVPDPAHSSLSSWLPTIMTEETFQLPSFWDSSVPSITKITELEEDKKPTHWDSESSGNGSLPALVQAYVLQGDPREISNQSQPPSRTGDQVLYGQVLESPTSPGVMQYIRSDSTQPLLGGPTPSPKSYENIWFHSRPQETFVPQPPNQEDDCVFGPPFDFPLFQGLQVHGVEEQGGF
Assay: Growth response of chimeric LIF receptor-expressing Ba/F3 cell line LIG (WST-8)
Assay type: cell-based
Conditions: 72 hours culture, WST-8 absorbance
From the text: Chimeric receptor DNAs were constructed by linking cDNA fragments encoding human LIF receptor (from the 1st to the 833rd amino acid residues; Gearing, D P. et al. […] EMBO J., 10, 2839-2848) and human gp130 (from the 1st to the 619th amino acid residues; Hibi, M. et al. (1990) Cell, 63, 1149-1157) with the transmembrane and intracellular domains (from the 602nd to the 813th amino acid residues; Fukunaga, R. et al. (1990) Cell 61, 341-350) of mouse G-CSF receptor, respectively. These constructs were inserted downstream of the HEF1α promoter of the mammalian expression vector pCV to construct chimeric receptors expression vectors, pCV-cLIFR and pCV-cgp130, respectively. pCV-cLIFR and pCV-cgp130 were linearized with Pvu I (Takara Shuzo), respectively, extracted with phenol and chloroform, and purified by ethanol precipitation. […]
The cells were washed twice with Media A, and were suspended in Media A to give a cell density of 5×10^4 cells/mL. […] After the culture, 10 μL/well WST-8 reagent (Cell Count Reagent SF; Nacalai Tesque) was added, and pre-reaction absorbance at a measurement wavelength of 450 nm and a control wavelength of 655 nm was measured using microplate reader (Model 3550, Bio Rad). The plate was incubated for two hours in a CO2 incubator (CO2 concentration, 5%), and post-reaction absorbance was measured as above. […]

concentration at which an evident growth reaction was observed: > 10 ng/mL
B1: human CNTF: human ciliary neurotrophic factor (Genzyme) (protein, UniProt P26441 1-200, looked up)
Ciliary neurotrophic factor: MAFTEHSPLTPHRRDLCSRSIWLARKIRSDLTALTESYVKHQGLNKNINLDSADGMPVASTDQWSELTEAERLQENLQAYRTFHVLLARLLEDQQVHFTPTEGDFHQAIHTLLLQVAAFAYQIEELMILLEYKIPRNEADGMPINVGDGGLFEKKLWGLKVLQELSQWTVRSIHDLRFISSHQTGIPARGSHYIANNKKM
